Key:
BglM-G1 = target: T1, BglM-G1 (marine metagenome, UniProt Z9E642Q5N2); assay: X-ray crystal structure, […] Å, soaked crystals; type: binding; details: 6 mM ligand soak 24 h, pH 7.5, 18 °C; active site
T1 construct: codon-optimised synthetic gene in pOE, E. coli BL21(DE3); N-terminal MHHHHHHENLYFQGH tag TEV-cleaved, scar GH; theoretical mass 49,874 Da; monomer in solution
T1 sequence (Z9E642Q5N2 16-455 H90R): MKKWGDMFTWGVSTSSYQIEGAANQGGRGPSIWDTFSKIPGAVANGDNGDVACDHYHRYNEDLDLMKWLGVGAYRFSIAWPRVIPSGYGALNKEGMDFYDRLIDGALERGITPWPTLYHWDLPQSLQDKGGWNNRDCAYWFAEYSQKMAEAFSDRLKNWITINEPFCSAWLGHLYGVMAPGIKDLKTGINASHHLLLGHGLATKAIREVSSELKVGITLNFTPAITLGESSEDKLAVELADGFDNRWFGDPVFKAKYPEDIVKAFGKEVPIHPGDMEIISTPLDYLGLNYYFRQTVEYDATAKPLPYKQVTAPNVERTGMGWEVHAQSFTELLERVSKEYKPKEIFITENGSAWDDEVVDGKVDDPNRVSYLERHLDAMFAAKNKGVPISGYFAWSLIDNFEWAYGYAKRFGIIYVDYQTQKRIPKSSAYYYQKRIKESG

[1] = system: C[C@H]1O[C@@H](Oc2ccc([N+](=O)[O-])cc2)[C@H](O)[C@@H](O)[C@H]1O; assay: purified protein; details: 100 mM sodium citrate pH 6.0, 45 °C
[2] = system: O=[N+]([O-])c1ccc(O[C@@H]2O[C@H](CO)[C@@H](O)[C@H](O)[C@H]2O)cc1; assay: purified protein; details: 100 mM sodium citrate pH 6.0, 45 °C

Molecule	X-ray crystal structure, 1.55 Å, soaked crystals (BglM-G1)	Km [1]	kcat [1]	kcat/Km [1]	Km [2]	kcat [2]	kcat/Km [2]
OC[C@H]1NC[C@H](O)[C@@H](O)[C@@H]1O [1-deoxynojirimycin]	we co-crystallized the H75R variant with the glucosidase inhibitor 1-deoxynojirimycin						
BglM-G1 (marine metagenome)		88 ± 38 µM	41.4 ± 3 s⁻¹	519000 ± 146000 M⁻¹ s⁻¹	135 ± 16 µM	55.6 ± 1.5 s⁻¹	417000 ± 44000 M⁻¹ s⁻¹

— publication PMC6192996, “Loss of a conserved salt bridge in bacterial glycosyl hydrolase BgIM-G1 improves substrate binding in temperate environments” (Communications Biology, 2018)
